This test concerns the target T1, streptavidin (UniProt P22629 37-163, limits assumed).
T1 construct: Applied in solution to the peptide array and detected by fluorescence; also called streptavidin receptor; receptor
Put plainly: peptide array, fluorescence signal of bound streptavidin.

From US20170059578A1 (ROCHE SEQUENCING SOLUTIONS, published 2017) come the findings set out here.

T1 sequence (P22629 37-163 limits assumed): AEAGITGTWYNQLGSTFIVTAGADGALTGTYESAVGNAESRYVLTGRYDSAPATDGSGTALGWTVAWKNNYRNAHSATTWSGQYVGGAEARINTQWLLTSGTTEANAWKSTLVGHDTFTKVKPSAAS

B1: … (SEQ ID NO:2) with deletion of the Met at the 6th position from the N-terminus (peptide)
peptide: GWTHPFEQKG
notes: Deletion made by design ([-]) or imitated by synthesis conditions [1]; (solvent alone) and [2]; (no reagent); also called deletion control peptide; synthesis conditions [1] and [2]
On to B1, for which the binding result was “no binding”.

B2: … (SEQ ID NO:1) with deletion of the His at the 10th position from the N-terminus (peptide)
peptide: GFEDYLGEYG
notes: Deletion made by design ([-]) or imitated by synthesis conditions [1]; (solvent alone) and [2]; (no reagent); also called His deletion peptide; synthesis conditions [1] and [2]
For the molecule B2, the binding result was “no binding”.
